In patent publication US20180282402A1:

Target: Cyno HARS (cynomolgus monkey (Macaca fascicularis))
Test: SPR (ProteOn); HRS protein immobilized, antibody as analyte

Binder | Kd [pM]
KL31-241 (antibody, V domains shown) VH: QVQLVQSGAEVKKPGASVKVSCKASGYTFTDYCIGWIRQAPGQGLEWMGDICPGDAYTNDNEKFKDRATMTADTSTSTAYMELSSLRSEDTAVYYCARGEEQLGLRNAMDYWGQGTSVTVSS VL: DIVMTQSPDSLAVSLGERATINCQSQSVSTSTYNYMHWYQQKPGQPPKLLIKYASNLESGVPDRFSGSGSGTDFTLTISSLQAEDVATYYCQHSWEIPWTFGGGTKLEIK | 1200
KL31-532 (antibody, V domains shown) VH: QVQLVQSGAEVKKPGASVKVSCKASGYTFTDYCIGWIRQAPGQGLEWMGDICPGDTYTNDNEKFKDRATMTADTSTSTAYMELSSLRSEDTAVYYCARGEEQLGLRNAMDYWGQGTLVTVSS VL: DIVMTQSPDSLAVSLGERATINCQSQSVSTSTYNYMHWYQQKPGQPPKLLIKYASNLESGVPDRFSGSGSGTDFTLTISSLQAEDVATYYCGHSYEIPWTFGGGTKVEIK | 56
AB13-288 (IgG4-2 kappa) (antibody, V domains shown) VH: QVQLVESGGGLVKPGGSLRLSCAASGFTFSDYYMSWIRQAPGKGLEWVSYISDKSRYTKYTDKVRGRFTISRDNAKNSLYLQMNSLRAEDTAVYYCARYLYQVIAIADAWGQGTLVTVSS VL: DIQMTQSPSSVSASVGDRVTITCRASQGISSWLAWFQQKPGKAPKLLIFVASNLESGVPSRFSGSGSGTDFTLTISSLQPEDFATYYCQQAESFPYTFGQGTKLEIK | 28
AB13-288 (IgG1m(zf) kappa) (antibody, V domains shown) VH: QVQLVESGGGLVKPGGSLRLSCAASGFTFSDYYMSWIRQAPGKGLEWVSYISDKSRYTKYTDKVRGRFTISRDNAKNSLYLQMNSLRAEDTAVYYCARYLYQVIAIADAWGQGTLVTVSS VL: DIQMTQSPSSVSASVGDRVTITCRASQGISSWLAWFQQKPGKAPKLLIFVASNLESGVPSRFSGSGSGTDFTLTISSLQPEDFATYYCQQAESFPYTFGQGTKLEIK | 2

Further lines, results first:

Kd [pM] | Binder
75 | AB04-439 (antibody, V domains shown) VH: QVQLVESGGGLVKPGGSLRLSCAASGFTFSDYYMTWIRQAPGKGLEWVSYISGSFRYTNYADSVKGRFTISRDNAKNSLYLQMNSLRDEDTAVYFCARYVYQVVAIGDLWGQGTLVTVSS VL: DIQMTQSPSSVSASVGDRVTITCRASQGISSWLAWYQQKPGRAPKLLIFAASSLQSGVPSRFSGSGSGTHFTLTISSLQPEDFATYYCQQAESFPYTFGQGTKLEIK
< 1 | AB13-112 (IgG1m(za) kappa) (antibody, V domains shown) VH: QVQLVESGGGLVKPGGSLRLSCAASGFTFSDYYMSWIRQAPGKGLEWVSYISDKSRYTKYTDKVRGRFTISRDNAKNSLYLQMNSLRAEDTAVYYCARYLYQVIAIADAWGQGTLVTVSS VL: DIQMTQSPSSVSASVGDRVTITCRASQGISSWLAWFQQKPGKAPKLLIFVASNLESGVPSRFSGSGSGTDFTLTISSLQPEDFATYYCQQAESFPYTFGQGTKLEIK
240 | AB13-433 (antibody, V domains shown) VH: QVQLVESGGGLVKPGGSLRLSCAASGFTFSDYYMSWIRQAPGKGLEWVSYISDSSTYTNYTDSVRGRFTISRDNAKNSLYLQMNSLRAEDTAVYYCARYLYQVIAVADSWGQGTLVTVSS VL: DIQMTQSPSSVSASVGDRVTITCRASQGISSWLAWFQQKPGKAPKLLIYVASNLESGVPSRFSGSGSGTDFTLTISSLQPEDFATYYCQQANSFPYTFGQGTKLEIK
< 1 | AB13-112 (IgG4 kappa) (antibody, V domains shown) VH: QVQLVESGGGLVKPGGSLRLSCAASGFTFSDYYMSWIRQAPGKGLEWVSYISDKSRYTKYTDKVRGRFTISRDNAKNSLYLQMNSLRAEDTAVYYCARYLYQVIAIADAWGQGTLVTVSS VL: DIQMTQSPSSVSASVGDRVTITCRASQGISSWLAWFQQKPGKAPKLLIFVASNLESGVPSRFSGSGSGTDFTLTISSLQPEDFATYYCQQAESFPYTFGQGTKLEIK
